The target in the assay is spore coat protein GerQ (Bacillus amyloiquefaciens). Put plainly: cryo-EM structure; native filaments extracted from B. amyloiquefaciens biofilm; helical reconstruction with C9 point group symmetry, rise 34.2 Å, twist −18.4°; 3.3 Å; partially unbundled filaments.

The substance “spore coat protein GerQ (natural protein)” had a stoichiometry N (subunits per ring) of 9.

The values above are taken from article PMC11405398.
